The target of experiment [1] is thrombin (free thrombin) (human) (UniProt P00734). The experiment is described as follows: discontinuous thrombin inhibition assay, chromogenic substrate; no TM.
Another experiment addresses Factor Xa (human) (UniProt P00742). Nature of the experiment: discontinuous Factor Xa inhibition assay, chromogenic substrate SpFXa.
Experiment [2] deals with thrombin (free thrombin) (human) (UniProt P00734). Nature of the experiment: discontinuous thrombin inhibition assay, chromogenic substrate; with 5 µg/ml heparin.
A further experiment addresses trypsin. Nature of the experiment: discontinuous trypsin inhibition assay, chromogenic substrate SpTH.

Chain of Factor Xa (human) (P00742 41-179 limits assumed, form in doubt, chain 1 of 2): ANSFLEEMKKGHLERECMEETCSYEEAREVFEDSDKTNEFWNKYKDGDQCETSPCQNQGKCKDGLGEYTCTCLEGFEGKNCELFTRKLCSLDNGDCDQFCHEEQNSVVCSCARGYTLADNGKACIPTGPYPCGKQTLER
Chain of Factor Xa (human) (P00742 235-488 limits assumed, form in doubt, chain 2 of 2): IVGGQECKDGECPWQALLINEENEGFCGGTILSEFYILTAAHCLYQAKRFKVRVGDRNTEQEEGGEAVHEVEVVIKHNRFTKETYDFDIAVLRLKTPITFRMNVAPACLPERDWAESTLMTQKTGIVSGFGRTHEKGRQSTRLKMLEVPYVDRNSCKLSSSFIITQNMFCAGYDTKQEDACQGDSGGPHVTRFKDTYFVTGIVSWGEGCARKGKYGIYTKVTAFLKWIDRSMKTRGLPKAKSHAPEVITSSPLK

In the case of “AT-neut (antithrombin H-helix mutant Asp309 to Asn, Glu310, 312, 313 to Gln) (from UniProt P01008 33-464)”, the second-order rate constant (κ2) of inhibition turned out to be 4100 M⁻¹ s⁻¹ in experiment [1], 990 M⁻¹ s⁻¹ in the experiment with Factor Xa (human), 1.4e+06 M⁻¹ s⁻¹ in experiment [2] and 17000 M⁻¹ s⁻¹ with trypsin.

(Values after patent US20010055591A1.)
